According to PMC11445749, “Structural bases for blockade and activation of BK channels by Ba^2+ ions” (Frontiers in Molecular Biosciences, 2024):

Molecular target: the molecule itself
Assay: cryo-EM structure; Slo1 tetramers in lipid nanodiscs (MSP1E3D1); two samples: Low-Barium (~1.4 mM Ba2+, PDB 7RK6) and High-Barium (10 mM Ba2+ throughout purification, PDB 7RJT); Titan Krios, K2 detector

B1: Aplysia californica Slo1 BK channel (natural protein)
chain: not shown
notes: Homotetramer in lipid nanodiscs (scaffold MSP1E3D1); also called Aplysia Slo1; Aplysia BK channel; not shown: GFP, C-terminal, cleaved; rho-1D4, C-terminal, cleaved
- stoichiometry N: 4
